Experimental findings from patent US20220056111A1 (YUROGEN BIOSYSTEMS, published 2022) are described below.

T1: HKU1 S1 and S2 protein (HKU1, UniProt Q5MQD0 13-1300)
T1 construct: domain: S1 and S2
T1 sequence: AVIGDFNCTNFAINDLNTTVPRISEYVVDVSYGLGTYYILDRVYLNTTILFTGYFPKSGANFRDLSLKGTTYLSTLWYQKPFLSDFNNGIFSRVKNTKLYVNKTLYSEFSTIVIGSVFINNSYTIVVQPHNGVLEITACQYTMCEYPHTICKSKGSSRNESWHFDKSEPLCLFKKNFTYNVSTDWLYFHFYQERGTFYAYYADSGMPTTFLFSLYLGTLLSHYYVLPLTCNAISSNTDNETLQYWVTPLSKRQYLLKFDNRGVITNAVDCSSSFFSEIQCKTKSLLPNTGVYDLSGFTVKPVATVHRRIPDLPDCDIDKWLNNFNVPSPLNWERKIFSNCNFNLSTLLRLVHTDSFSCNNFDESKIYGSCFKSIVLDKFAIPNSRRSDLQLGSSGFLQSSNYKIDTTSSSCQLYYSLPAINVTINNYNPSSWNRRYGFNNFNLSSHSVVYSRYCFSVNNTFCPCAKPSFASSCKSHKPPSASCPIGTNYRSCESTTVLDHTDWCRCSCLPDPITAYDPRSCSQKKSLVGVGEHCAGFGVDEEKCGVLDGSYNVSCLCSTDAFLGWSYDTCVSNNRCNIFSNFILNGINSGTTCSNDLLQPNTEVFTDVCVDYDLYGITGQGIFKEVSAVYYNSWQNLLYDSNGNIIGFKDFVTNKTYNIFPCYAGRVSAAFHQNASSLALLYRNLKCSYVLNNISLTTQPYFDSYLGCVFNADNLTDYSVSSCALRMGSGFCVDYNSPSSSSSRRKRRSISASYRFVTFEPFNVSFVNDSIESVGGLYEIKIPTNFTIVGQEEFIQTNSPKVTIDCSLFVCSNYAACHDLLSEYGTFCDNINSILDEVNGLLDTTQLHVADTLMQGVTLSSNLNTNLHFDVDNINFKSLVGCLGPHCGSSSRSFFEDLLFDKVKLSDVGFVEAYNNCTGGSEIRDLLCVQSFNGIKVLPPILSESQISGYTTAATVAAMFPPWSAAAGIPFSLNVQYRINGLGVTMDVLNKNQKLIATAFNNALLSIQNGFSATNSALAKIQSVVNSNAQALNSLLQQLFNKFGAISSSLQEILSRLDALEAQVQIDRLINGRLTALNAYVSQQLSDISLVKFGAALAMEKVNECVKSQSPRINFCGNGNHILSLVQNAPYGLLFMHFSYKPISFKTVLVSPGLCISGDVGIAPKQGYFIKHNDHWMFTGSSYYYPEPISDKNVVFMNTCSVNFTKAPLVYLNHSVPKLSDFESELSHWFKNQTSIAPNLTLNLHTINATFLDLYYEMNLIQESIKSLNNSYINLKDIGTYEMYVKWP

T2: HcoV-NL63 S protein (HcoV-NL63, UniProt Q6Q1S2 19-1296)
T2 construct: also called hCov-NL63 S1
T2 sequence: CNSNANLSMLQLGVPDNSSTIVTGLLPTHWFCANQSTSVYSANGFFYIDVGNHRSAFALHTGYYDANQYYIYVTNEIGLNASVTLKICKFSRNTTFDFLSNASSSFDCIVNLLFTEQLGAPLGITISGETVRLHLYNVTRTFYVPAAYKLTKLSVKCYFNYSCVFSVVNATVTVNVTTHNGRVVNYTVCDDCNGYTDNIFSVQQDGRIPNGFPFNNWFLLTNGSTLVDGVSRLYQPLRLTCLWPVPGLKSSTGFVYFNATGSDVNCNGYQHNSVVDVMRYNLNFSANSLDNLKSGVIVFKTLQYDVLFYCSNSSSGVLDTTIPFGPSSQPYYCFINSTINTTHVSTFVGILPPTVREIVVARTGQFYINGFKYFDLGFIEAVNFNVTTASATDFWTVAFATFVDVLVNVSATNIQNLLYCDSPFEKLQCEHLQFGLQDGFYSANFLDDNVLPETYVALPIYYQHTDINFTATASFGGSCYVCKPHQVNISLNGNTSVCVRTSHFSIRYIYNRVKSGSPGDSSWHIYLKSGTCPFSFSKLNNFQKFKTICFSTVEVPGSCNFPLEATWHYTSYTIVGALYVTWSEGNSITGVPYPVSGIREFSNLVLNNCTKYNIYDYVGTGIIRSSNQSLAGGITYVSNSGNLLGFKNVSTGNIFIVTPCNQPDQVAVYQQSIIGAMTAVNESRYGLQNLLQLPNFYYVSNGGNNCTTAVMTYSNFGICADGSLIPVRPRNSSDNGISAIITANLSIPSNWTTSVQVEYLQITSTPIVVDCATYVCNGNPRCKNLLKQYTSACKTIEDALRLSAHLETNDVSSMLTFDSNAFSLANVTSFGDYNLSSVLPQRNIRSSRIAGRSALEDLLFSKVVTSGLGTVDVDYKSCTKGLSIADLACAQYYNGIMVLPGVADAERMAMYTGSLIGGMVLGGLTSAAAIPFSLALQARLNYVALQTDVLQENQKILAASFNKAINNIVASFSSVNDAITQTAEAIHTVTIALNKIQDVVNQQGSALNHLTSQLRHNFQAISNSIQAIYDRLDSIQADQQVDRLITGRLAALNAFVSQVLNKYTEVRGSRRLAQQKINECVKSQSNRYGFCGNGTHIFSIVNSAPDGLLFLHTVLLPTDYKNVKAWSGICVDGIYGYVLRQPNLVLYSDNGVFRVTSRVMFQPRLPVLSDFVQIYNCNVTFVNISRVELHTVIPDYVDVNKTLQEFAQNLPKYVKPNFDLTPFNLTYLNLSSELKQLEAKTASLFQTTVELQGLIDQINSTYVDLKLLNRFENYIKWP

B1: rabbit monoclonal antibody 1H1 against the SARS-CoV-2 S1 (antibody, V domains shown)
VH: QSLEESGGDLVKPGASLTLTCTASGFSFSSGYDMCWVRQAPGKGLEWIACIGTGSSGNIYYASWAKGRFTISKTSSTTVTLQMTSLTAADTATYFCARDDADYAGPDYFNLWGPGTLVTVSS
VL: DIVMTQTPASVSEPVGGTVTIKCQASESISNWLAWYQQKPGQPPKLLIYAAFTLASGVPSRFKGSGSGTQFTLTINGVECADAATYYCQQTYSSRDVDNVFGGGTEVVVKG
B2: rabbit monoclonal antibody 1A3 against the SARS-CoV-2 S1 (antibody, V domains shown)
VH: QSLEESGGRLVTPGTPLTLTCTVSGFSFSSYHMGWVRQAPGEGLEWIGTLIGIAGNTYYASWAKGRFSISKTSTTVDLKMTSPTTEDTATYWCARIVTATFEFWGPGTLVTVSS
VL: AQVLTQTPSPVSAAVGGTVTISCQASQSVNMNLLSWFQQKPGQPPKLLIYQASNLASGVSARFKGSGSGTQFTLTINEIQCDDAATYYCQGDMGGWMFPFGGGTEVVVTG
B3: rabbit monoclonal antibody 1D2 against the SARS-CoV-2 S1 (antibody, V domains shown)
VH: QSVEESGGRLVTPGTSLTLTCTVSGIDIETYWMSWVRQAPGKGLEWIAIITSHDHSGYANWAEGRFTISKTSTTVTLTITDLQPSDTGTYFCAKDVGHSTYDLWGPGTLVTVSS
VL: AAVLTQTPSPVSAAVGGTVTISCQSSESVLSNNRLSWYQQKPGQPPKLLIYAASTLASGVPSRFKGRGSGTQFTLTISDVQCDDAAMYVCAGAFSGSSDTRAFGGGTEVVVKG
B4: rabbit monoclonal antibody 7G5 against the SARS-CoV-2 S1 (antibody, V domains shown)
VH: QEQLEESGGDLVKPGASLTLTCTASGFSFSSAYYMCWVRQAPGKGLEWIACIGVDSGGNSYYASWAKGRFTISTTSSTTVTLQMTSLTAADKATYFCTRSFSLWGPGTLVTISS
VL: RKWLTQTASSVSAAVGGTVTISCQASQSVYNNDNLAWFQQRPGQPPKLLIYLASNLASGVPPRFSGSGSGTQFTLTISDVQCDDAATYYCLGGYDCSNADCHAFGGGTEVVVKG
B5: rabbit monoclonal antibody 9A5 against the SARS-CoV-2 S1 (antibody, V domains shown)
VH: QSVEESGGRLVTPGTPLTLTCTVSGFSLSAYQMIWVRQTPGKGLEYIGIMHTGTSAYYANWAKGRFTISKTSSTTVDLKMTSPTTEDTATYFCGRNLNEGFTGAYPFNLWGPGTLVAVSS
VL: DVVMTQTPASVEAAVGGTVTIKCQASQSIGSNLAWYQKKPGQPPKLLIYQASNLASGVPSRFKGSGSGTQFTLTISDLECADAATYYCQMNYYISSSYTYTFGGGTEVVVKG

For the first assay, the target named is SARS-CoV-2 Spike S1 protein (SARS-CoV-2, UniProt P0DTC2 16-685).
Assay: not given
One may read the EC50 (read off the curve) as the concentration needed to bring the measured effect to its halfway point. Low values mean a more potent agent, high ones a less potent agent. In the case of B1, the “EC50 (read off the curve)” value is ~0.04 µg/mL.

The next assay concerns the target T3, RBD (receptor binding domain) of the SARS-CoV-2 S1 (SARS-CoV-2, UniProt P0DTC2 319-541).
T3 construct: domain: RBD; also called RBD domain protein
The experiment in a line: direct antigen ELISA, RBD coated, antibody titrated, anti-rabbit IgG-HRP. (In general: In an ELISA, binding on a coated surface is turned into a signal by an enzyme label.)
In the case of B2, the binding result was “no binding (tested: 1000 ng/ml)”.

Take B3: the binding result is “no binding (tested: 1000 ng/ml)”.

In a further assay the target is T4, SARS S1 and S2 protein (SARS, UniProt P59594 14-1195).
T4 construct: domain: S1 and S2
The experiment in a line: direct ELISA, OD450.
Turning to B4, the binding result is reported as “no binding”.

As to B1, the binding result is “no binding”.

Regarding B2, the binding result is listed as “no binding”.

In the case of B5, the binding result is listed as “no binding”.

The target of a further assay is T1, HKU1 S1 and S2 protein. The experiment in a line: direct ELISA, OD450.
As to B4, the binding result is reported as “no binding”.

For the molecule B1, the binding result is recorded as “no binding”.

In the case of B2, the binding result is “no binding”.

B5: the binding result is “no binding”.

A further assay concerns the target T2, HcoV-NL63 S protein. The assay can be described thus: direct ELISA, OD450.
With B4, the binding result was “no binding”.

B1: the binding result was “no binding”.

With B2, the binding result is “no binding”.

On to B5, for which the binding result is on record as “no binding”.

In the case of B3, the binding result is “no binding”.
